Literature values, collected in PMC10361719.

Molecular target: Gag (Human immunodeficiency virus 1) (UniProt O93182)

Chain of Gag (O93182 2-500): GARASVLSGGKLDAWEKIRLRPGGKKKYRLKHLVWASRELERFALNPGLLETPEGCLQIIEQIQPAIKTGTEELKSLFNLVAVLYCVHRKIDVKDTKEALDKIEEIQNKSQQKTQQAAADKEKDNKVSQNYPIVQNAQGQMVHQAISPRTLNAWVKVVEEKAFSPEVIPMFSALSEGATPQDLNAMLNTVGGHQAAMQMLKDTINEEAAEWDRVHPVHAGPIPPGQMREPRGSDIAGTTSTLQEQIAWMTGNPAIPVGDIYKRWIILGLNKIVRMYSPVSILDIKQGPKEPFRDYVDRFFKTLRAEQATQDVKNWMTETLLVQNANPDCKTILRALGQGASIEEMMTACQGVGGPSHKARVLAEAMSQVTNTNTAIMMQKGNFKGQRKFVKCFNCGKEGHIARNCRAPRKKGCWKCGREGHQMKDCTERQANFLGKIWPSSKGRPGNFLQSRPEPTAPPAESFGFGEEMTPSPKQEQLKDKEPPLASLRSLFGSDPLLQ

Substance: Gag (from UniProt O93182)
- Kd: 5.5 µM
